Key:
[1] = target: T1, gamma secretase, gamma cleavage (secreted Aβ) (Homo sapiens, UniProt P49768); assay: Aβ ELISA and IP/Western blot of conditioned media, HEK cells transfected with C99GVP constructs; type: cell-based; parameters: secreted Aβ42: unit not given here; conditions: for effect on secreted Aβ / Aβ production: words; for drop of Aβ40: Aβ40 ELISA, FIG. 9C; for reduction in total Aβ: IP/Western blot, FIG. 9B; for secreted Aβ (Ab40, Ab42, total): 5 μM, 24 h, C99GVP transfectants, FIG. 5D; for Aβ-lowering potency with C99GVP compared with native substrate APP: FIG. 5E
T1 construct: endogenous in cells; host or cells: HEK 293, transiently transfected with substrate plasmids
Procedure: AICD neo-epitope antibodies were raised against the peptide VMLKKKC (SEQ ID NO:39). […] (FIGS. 15 and 16). P Cell Culture and Transient Transfection: Human embryonic kidney 293 (HEK 293) cells (ATCC) were grown in Dulbecco's Modified Eagle Medium with High Glucose (DMEM, obtained from Gibco/Invitrogen, Cat #11960) supplemented with 10% fetal bovine serum (Hyclone, SV 30014.03) and 50 units/ml penicillin and streptomycin (37° C., 5% CO2). Cells were used at less than passage number 30. At the time of seeding, viability of cells was greater than 95% as determined using a Vi-Cell Analyzer (Beckman-Coulter). Confluence of cells on plates was kept at greater than 95% during all phases of the experiment as determined with a standard tissue culture inverted microscope. All transfections were carried out on 5×10^6 cells in 6-well tissue culture plates (Costar). […] FuGENE6 reagent (Roche Cat. #11-814443001) was used according to manufacturer's protocol for the transient transfection of adherent cells. Transfected cells were reseeded onto 12 well (2×10^6 cells) and/or 96-well (5×10^4 cells) plates (Costar) 16 h post-transfection; fresh media was added either with or without gamma secretase inhibitors. The cells and conditioned media were harvested 48 h post-transfection for analysis.
(§1) Inhibitor Treatment of Transfected HEK Cell: The transition state analogue gamma secretase inhibitor-L685,458 (Sigma) and the peptidomimetic inhibitor-DAPT (Dovey, H. F., et al., J Neurochem., 2001; 76:173-181) were dissolved in DMSO to make 20 mM stocks. Similarly, a number of Elan's series of sulfonamide inhibitors were prepared and used as described herein (see, also FIGS. 11-14). Inhibitors were added to cell cultures (e.g., HEK) at the indicated final concentration, and the treated cells were harvested 48 h post-transfection. The metallo-proteinase inhibitor TAPI-1 (Calbiochem) was used at a final concentration of 40 μM. The Aβ-degrading enzyme inhibitors, Bacitracin (Calbiochem) and phosphoramidon (Calbiochem) were used at final concentration of 1 mg/ml and 40 μM, respectively. All inhibitor experiments were performed in triplicate and repeated at least three times.
Immunoprecipitation (IP) and Western Blot Detection of Aβ: Total Aβ peptides in conditioned medium or cell lysate were immuno-precipitated at 4° C. overnight with 4 μg of the 2H3 antibody, followed by incubation with 50 μl of a 50% protein G-Sepharose (GE Healthcare) slurry for 1 hr and three washes in the same lysis buffer as described above in the Western Blot discussion. Proteins were eluted from the solid-phase immunoprecipitates in Laemmli sample buffer by heating at 70° C. for 5 min and resolved on 10-20% Tris-Tricine SDS-PAGE or the modified Tris-Tricine/8M urea gels (Qi-Takahara, Y., et al., J Neurosci. (2005; 25, 436-445). After transferring onto nitrocellulose membranes (Invitrogen), the membranes were heated to 98° C. for 5 min in PBS, immunostained with the 2H3 antibody and visualized with Super-signal West Pico chemiluminescent substrate (Pierce). Each experiment was repeated at least three times.
(§2) ELISAs used to quantify different Aβ species were performed using standard techniques as described above and in (Johnson-Wood, K., et al., Proc. Natl. Acad. Sci. U.S.A., 1997; 94: 1550-1555, incorporated by reference). The Aβ40 and Aβ42 peptides in the samples were captured onto 2G3 or 21F12 antibody coated plates, respectively, and detected with a biotinylated 2H3 antibody. The fluorescence signal generated from a streptavidin-alkaline phosphatase conjugate (Roche) was measured with a CytoFlour microplate reader (Applied Biosystems). Synthetic Aβ40 or Aβ42 peptides (Anaspec) were used to generate standard curves (FIG. 10). All measurements were done in triplicate.

[2] = target: T2, gamma secretase, AICD-GVP generated from C99-GVP (Homo sapiens, UniProt P49768); assay: Luciferase reporter gene assay, HEK293 cells transfected with C99GVP; type: cell-based; conditions: dose-dependent, FIG. 5C
T2 construct: endogenous in cells
Procedure: as §1, with “All inhibitor experiments were performed in triplicate and repeated at least three times.” left out
Luciferase Reporter Gene Assay: Luciferase reporter assays were carried out 48 hr post-transfection. […] After adding 100 μl of luminescent substrate (Promega), the luciferase activity was measured with a MicroLumatPlus microplate luminometer (Berthold Technologies). The P-galactosidase activity was measured similarly, using a luminescent β-galactosidase substrate (BD Biosciences). […]
Luciferase Assay. […] Some residual luciferase activity remained in the presence of excess gamma secretase inhibitors, even though identical treatment completely abolished AICD production as measured by Western blot (FIG. 5B).

[3] = target: T3, gamma secretase, APP γ and ε cleavage (Homo sapiens, UniProt P49768); assay: Aβ and AICD ELISA, Fas-APPsw-DD transfected 293 cells; type: cell-based
T3 construct: endogenous in cells; host or cells: 293 cells transfected with Fas-APPsw-DD
Procedure: as §2
An AICD sandwich ELISA was established based on capture of cell lysates with any of the AICD polyclonal or monoclonal antibodies discussed above, and reporting back with antibody directed at the extreme C-terminus of APP (e.g., 13G8, prepared in-house). Alternatively, luciferase-based reporter assays can be used to detect and quantify the presence of AICD and correlate those numbers to inhibitory potency of known or potential gamma secretase inhibitor compounds.
Polyclonal antibody AICD ELISA. HEK 293 cells were grown under standard conditions to ˜90% confluence. Cells were harvested, counted, and subsequently plated onto PDL-coated 60 mm dishes at 2×10^6 cells/dish in 5 mL media. […]

[4] = system: AICD-GVP nuclear staining in COS-7 cells; assay: Immunostaining of transfected COS-7 cells; type: cell-based; conditions: DAPT 5 μM, FIG. 5F
Procedure: Immunostaining: Wild type or transiently transfected COS-7 cells (ATCC) were fixed at room temperature with 2% paraformaldehyde in PBS for 20 min and subsequently permeabilized with 0.2% Triton X-100 in PBS for 10 min. […] All staining was visualized on a Bio-Rad MRC 1024ES confocal microscope (Bio-Rad) and captured with a coupled CCD camera.

[5] = transient expression in HEK cells, ELISA

With gamma secretase the “secreted Aβ” value (C99GVP-G25S) was “showed no obvious effect on secreted Aβ”, the “drop of Aβ40” value (C99GVP-S26L) was 52.7±2.3% drop of Aβ40 and the “reduction in total Aβ” value (C99GVP-S26L) was 65.7±8.5% reduction in total Aβ. The “Aβ secretion (western blot and Aβ40 ELISA of conditioned media)” value (C99GVP-SREBP1-gsnk) was “also maintained normal Aβ secretion”, the “reduction in secreted Aβ” value (C99GVP-SLSS) was “marked reduction (˜97%) in secreted Aβ” and the “secreted Aβ” value (C99GVP-N27S) was “showed no obvious effect on secreted Aβ”. For the same molecule, the “decrease in total Aβ and in Aβ40” value (C99GVP-K28S) was “an even more substantial (˜90%) decrease in both measurements”.

With “G25S: C99GVP point mutant in the GSNK motif (SEQ ID NO:43) (LEDAEFRHDSGYEVHHQKLVFFAEDVSSNKGAIIGLMVGGVVIATVIVITLVML)” the “effect on secreted Aβ / Aβ production” value ([1]; versus C99GVP control) was “no obvious effect”.

For “S26L: C99GVP point mutant in the GSNK motif (SEQ ID NO:44) (LEDAEFRHDSGYEVHHQKLVFFAEDVGLNKGAIIGLMVGGVVIATVIVITLVML)”, the “drop of Aβ40” value ([1]; versus C99GVP control) was 52.7±2.3% and the “reduction in total Aβ” value ([1]; versus C99GVP control) was 65.7±8.5%.

With “K28S: C99GVP point mutant in the GSNK motif (SEQ ID NO:46) (LEDAEFRHDSGYEVHHQKLVFFAEDVGSNSGAIIGLMVGGVVIATVIVITLVML)” the “drop of Aβ40” value ([1]; versus C99GVP control) was roughly 90% and the “reduction in total Aβ” value ([1]; versus C99GVP control) was roughly 90%.

For “N27S: C99GVP point mutant in the GSNK motif (SEQ ID NO:45) (LEDAEFRHDSGYEVHHQKLVFFAEDVGSSKGAIIGLMVGGVVIATVIVITLVML)”, the “effect on secreted Aβ / Aβ production” value ([1]; versus C99GVP control) was “no obvious effect”.

For “C99GVP: 99 amino acid C-terminal fragment of APP with Gal4-VP16 domain inserted (SEQ ID NO:47)”, the “Aβ42 fraction of the total Aβ” value ([1]; transient expression in HEK cells) was 15.7±2.5%, the “secreted Aβ40” value [1, 5] was 210.8 ± 19.2 pM and the “secreted Aβ42” value [1, 5] was 39.1±6.4.

`CC(C)C[C@H](NC(=O)[C@H](Cc1ccccc1)C[C@@H](O)[C@H](Cc1ccccc1)NC(=O)OC(C)(C)C)C(=O)N[C@@H](Cc1ccccc1)C(N)=O` [L-685,458, reference compound] was tested, and the “luciferase reporter transactivation by AICD-GVP” value [2] was “block luciferase reporter transactivation”, the “secreted Aβ (Ab40, Ab42, total)” value [1] was “block secreted Aβ” and the “Aβ-lowering potency with C99GVP compared with native substrate APP” value ([1]; ELISA) was “equal Ab potency”. For the same molecule, the “γ/ε selectivity = IC50 AICD/IC50 Aβ” value [3] was 1.9.

`C[C@H](NC(=O)Cc1cc(F)cc(F)c1)C(=O)N[C@H](C(=O)OC(C)(C)C)c1ccccc1` [DAPT] was tested, and the “nuclear staining of AICD-GVP” value [4] was “abolished”, the “luciferase reporter transactivation by AICD-GVP” value [2] was “block luciferase reporter transactivation” and the “secreted Aβ (Ab40, Ab42, total)” value [1] was “block secreted Aβ”. For the same molecule, the “Aβ-lowering potency with C99GVP compared with native substrate APP” value ([1]; ELISA) was “equal Ab potency” and the “γ/ε selectivity = IC50 AICD/IC50 Aβ” value [3] was 0.7.

B1: C99GVP-SLSS: C99GVP in which the GSNK motif is substituted with SLSS from APLP2 (SEQ ID NO:51) (protein)
chain: DAEFRHDSGYEVHHQKLVFFAEDVSLSSGAIIGLMVGGVVIATVIVITLVMLKKKKLLSSIEQACDICRLKKLKCSKEKPKCAKCLKNNWECRYSPKTKRSPLTRAHLTEVESRLERLEQLFLLIFPREDLDMILKMDSLQDIKALLTGLFVQDNVNKDAVTDRLASVETDMPLTLRQHRISATSSSEESSNKGQRQLTVSGIPGDLAPPTDVSLGDELHLDGEDVAMAHADALDDFDLDMLGDGDSPGPGFTPHDSAPYGALDMADFEFEQMFTDALGIDEYGGQYTSIHHGVVEVDAAVTPEERHLSKMQQNGYENPTYKFFEQMQN
With B1 the “reduction in secreted Aβ” value ([1]; versus C99GVP control, FIG. 9B and 9C) was roughly 97%.

Source: patent US20090163594A1, “Triple Assay System for Identifying Substrate Selectivity of Gamma Secretase Inhibitors” (ELAN PHARMACEUTICALS, INC., priority 2007, published 2009)
